Results: the NTF2 design screens of Basanta et al. (2020)

Test: protease stability score; higher = more stable; yeast display proteolysis, trypsin and chymotrypsin;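 note: relative to predicted unfolded state with 0 unfolded-like and 1 meaning tenfold more protease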
Sequence “DDRKKEAHELFEFLLDVFRTGDEKSTEELLDPHTRNVIGDKHYHGRDVWVTFMKKFKNAKVHFNHLEVQGDKVTFDITFEIGDKTHRMRFFLEKYDGRWFIKEIQVD” has a protease stability score of 1.44.
In the case of “SEDEHLAERMVHLWNKILLTGNEEIMEKLFDPNTRVIVGDKEYVGREVFLHLVKEIRKRADHIEIRIQHLEVQGDKVHLHGILIFRQGDKSDEQRVHLHSEKVNGRWFLREFRFE”, the protease stability score was 2.3.
“DEDEEMSKLLLEVSERVIETGDEHLWTRLLDPNVRIHLIIGDKTIELIGRERAHELLHHILERYKNATLRLRSVEIQGDKVIVESELNVGDKRIKQIYIWTKINGQWVLEEVNIEVR” gave a protease stability score of 1.44.
For “DEEEELAKEMLERFNKSLHTGDEESIERLLDPDVRVIFNGKDLIGRETVADFLKEWRMSVHTFEIRRFHSQGEKMHLDGHTEIKIHFNGKTVHLNHRVEHHMHKVNGRWTIHSIQFL”, the protease stability score was 1.18.
With “DESEESALKFLKEWREHFRTGNEDHMEELADPNVRVVIGDKEYHGWEETSRLISEKLRHMRVKFVLHTIRVVDGRIHVKSSLIIEVGDKELRVETSYHFEKVNGRWRLRVIHQE” the protease stability score was 1.27.
Work on “DEEEERRRHLIDVLLRLWHTGDEESFTNLADPHVRIHVGDKIFHGREAASRWMHNVREHWRLHHERDHDVKIQGEKVVRDGHVDIEFNGVRVRTRVEIILTVVNGQIKLIEIRIL” yielded a protease stability score of 1.26.
“SDEERLLKEIYRIWIRLFETGDWKEFEQMFDPNVRLIIGDKDLHGMELYSKFMRHFVEHIRFEDHQEHEIRVIGDKIHVHGREVGNVNGKRHRREIEIRLVVVNGVFKSEELRVH” showed a protease stability score of 1.18.
In the case of “DEHTDYIREILRLLSEVVRTGDEDSLRRLLDPDARIVINGVDLIGMEHWFRLMFEIRHFAEDSKLEHSEVQGDKVIAHGRYHGEYEFDGRRRRHDTEVEMHVHKIDGRWYVRSLSIR”, the protease stability score was 1.72.
For “DEEEENMRIAFKLLIEMHRTGDPEEHLELFDPHVRSIIGDKEYHGWEEYMRWIQHARVKELKLDSHRVYNGRVELDVRINVDVNGREIDREVHIIAEKVNGRWHFKSVRVL”, the protease stability score was 1.41.
Work on “EEEERILFEEMEHLLHNFLTGNEEHLHELIDPRVRILIGDKDIHGMELHANIWKKVKGIKEEYHVHRVKLYNGRNEMDTEVRRVIDGQELSVRTKIIFDVVDGKLKSAEIRFH” yielded a protease stability score of 0.771.
Sequence “DEETKETIELMEKFRQDEETGDWRSLHRMADPHTKLVVDGREYHGMEHATTYLVEFIEHFGVKHFHIEDSHVVDGRIVLHTRVEVGDKSREIRIVALKINGVWLMQSIEIG” has a protease stability score of 0.102.
With “SERHEILRLITEIWDHLKHTGDEDSLADLFDPHARMIWNGRDIHGWSNLIEAFRKILEFLGIDRIHIENTEMRLQGDKSHNRTDLNVNGKHLDTRVHLDVVDGRIRVTEVRIH” the protease stability score was 1.06.
In the case of “DEEKKEQRHFLKKLADSIATGDEESLEKMVDPNAKSVVNGVEQHGMELMVENLREWLERLGVTKISFHEKRFRLIGNKLEVDGTIEVNGKKFESHFIVEKVDGQWRIREIRLH”, the protease stability score was 0.931.
“DERHEHTHELMRLLIEAFVTGDERLSEELADPHTRLHVNGVHNWGRERFVEVVRRLWSQVKNAKWTLRDFHVQGDKNEVVGDVHVDGQTIHVRFIFFVFNGRLESEEIRVH” gave a protease stability score of 2.4.
In the case of “DEHTKLLEDLVKILLFIRKTGDEDTFNKLFDPNVRLVQGDKTYHGRETFNKTMREWRIHHFEIKRSHFIGEWAEIDGHEDGDINGQKIRTDVEIILIIIDGRIKSIEYRPL”, the protease stability score was 0.929.
With “SELKESATDIMRIYIEAWLTGDFEEITRLADPRMRVINDFNGRTQVNHGRELFRETLKHWRIKHVHIDDMRSFEGRSESHGTVHGQFNGVEDEVRFEVRMVVVDGVLHSMTIIFK” the protease stability score was 1.18.
With “SEDEENAERFIQHWVHNMETGNEERLFELADPNVRLDVNGRDLIGREEFQKSMRWLINRVKNITVRVDKVTIQGNKLLVHTEVRVGDKHHETELIFLKVDGRWRIHEMRIV” the protease stability score was 1.52.
Work on “SEDHERMKEMIELTLHAIFTGDEDLLKRLLDPHTRIVVNGQDRHGRHALEWFLSVLGIKHIHYEIVRTHLVNGVLHNHIHGHLNVNGKTYELEVEITIRKINGRWLMHVVQWDII” yielded a protease stability score of 1.99.
“DDRERDSREAQEILREILLTGDFKTLYELADPHYRHNWDGRTIHGMETIVKLFLDLGMEIRDMRFRHLEIQGDFIHLDVDINGRINGKEKNVKIRVHARKIDGRWVLHSSERD” showed a protease stability score of 1.38.
For “DEETRMSEHAERLLIRSIRTGDFEEITRLADPHVRVHIGDKDIHGRESLSEVLEKTMRKFGVDNVDYKIEDSHTYDGRIDIRGRLEVNGVKREVRFHSLKIDGRWLLTHVEMD”, the protease stability score was -0.04.
“SEEEHEIRLAFKQVIETLITGDEHIMTQLLDPNVKIRQGDKILHGREEAHKWADEWLRRVDHFEDMKIHRHSVFNGRLELDSEQVVIQGDKTISIRSEIILTKINGRWQIEELRFD” showed a protease stability score of 1.43.
In the case of “DEDTRLEKEFLRILEEILKTGDEERLRRLVDPNTRLEVGDKRFHGWDAVHYMLRIFGIERIHFELTSRRRVNGRLELDGILRFNGRDHDTHIIIDKINGVWIVREERVE”, the protease stability score was 2.19.
“DEDEDHVRDMIEVFVRLMITGDEDTFKNLADPHVQFHFENVKLHGRHALLEWLRRLNREFKNIRVQILVHHVEVQGEKATVHSHIVVHVGDKTEHYDTELHIIVIDGRIKTVIIKRK” showed a protease stability score of 1.5.
With “SEDHEFSEHALREFIHVLMTGDERSLLKLMDPHTQLIFNGKEIHGMEEIIRIWSEHVKRFGFNHIDHVHIHHVEIQGDKIRIDGTTRGLVNGREHTHRTHLIAIKYNGKWIIHNIKID” the protease stability score was 1.9.
Sequence “EEDREHAREILRQLHHWFMTGDEEKWSKLMDPDARHHIHVGDKHSEYHGREEVIRFLRELIRHWRIDEVRIRRLHSIDGRVHSDIIVDGQVDGRHDRRDYELRVSVVDGRLKEVTIIVH” has a protease stability score of 1.07.
With “EEEKEHAREIVDILWELHETGDEEIFRTLADPDVRLLIGDKKIVGREEIWRKLKEVHKHWRLKSYHTRHLHVQGEKVTIDGVINGVYDGVDTSIDVNIQIFTFNGRFRSMREHYS” the protease stability score was 0.317.
“DETEDEMHKVLKLWIEAYRTGDEELLEELFDPHVRLDINGKDFHGREAFTRQVRHEMKHLRYEDFHIDTVEVQGEKAFVHGRIVGKFDGRRRHMHSHLIILKINGRWHVESLHFK” showed a protease stability score of 1.26.
“DEDTRDAEQFLKELLHNQITGDEESEDKLADPNVRIIINGREIHGRETWIKWRRQARITFEDQRVHSIHMIGDKLVLKIEIDGNLSFNGREIRDTVEIEIVVTKVNGRWVLDQVHFK” showed a protease stability score of 1.63.
For “HETEKLTKEYIREELEVLKTGDEKETRELLDPDVRIEQGEFSTHGWDYATHWLRTFTERVKGAQFEKKTIRVINGRVNIHMLMHFNGREERIDLISVKIDGRWLIKSVHIHIE”, the protease stability score was 0.208.
Work on “SKLEEDTRRAVEHFLKNIHTGDEHELTKMLDPNVRLDFDGREYHGREEVVHYLFRIMHEFGADHSEVKHWHVQGDFMQVDTRLHVGDKFFETELYMHKINGRWYVKHIIIR” yielded a protease stability score of 2.13.
“DENEDRIRHLLELHFHALETGDEKKTHDLFDPNTRVEVGDKTLHGRELVSKHVAEDLIKIKGLTVRIRDWNIVGDKVVVDSRVEFNGVRVETILVALKVDGRWLVKSIHIH” showed a protease stability score of 0.42.
“EHEDELKHFIHELWKYASDTGDFRTELLLLDPNAKVQVGDKEYHGREWLEFELRRLGVDRIIKEIHIHHEHEQGDKLEIRGELHLLFNGKRIVIDVKLFFLKIDGKWFNRHIIIK” gave a protease stability score of 1.75.
With “DESEKIMEDATKEHVKSFETGDFHTLLRQLDPHVRNNVNGVELHGREDVIRVLRELMERFPNVRVHIERIEVIGDKVNIKVNWNFNGVIVDVNIIAAKINGRWVNREMEVR” the protease stability score was 0.966.
Work on “DEEERLVRKFSSVVKHIFKTGDWKRFTELADPDTLLIIIIGDKEIRHHGREEITHALREWFRILGIDHFHIRDERYQGDKVELDTEVRYNGQTHDFVIEVIVVDGRAKEFKIRFR” yielded a protease stability score of 1.67.
“DEHHEVAHRISTMLTHILMTGNEEWLSHLADPRVRSEIGDFEIHGREHMEELLHRILNKLGADHLRIHHIEIRIQGDFLIVKVHGRTHIGDKTVTHEIIFIIIKINGRWHLHSIWFDFE” showed a protease stability score of 1.
Sequence “DHEDERETWAYHMLIHAFRTGDERIHEELLDPNVRTDVDGRTSHGWENVVKLVHHVLRLLGIDHIRLRRSDVVDGRVYMQGDIRVNGRTIETRVTIQVINGRVHSWSVRAE” has a protease stability score of 1.6.
For “DEIEDELRTVYELTVKALTTGNEDLLRNYLDPDTRFIIDGRDLHGMDEINELWREWRIHIHDTKIHSIRTQGNFADVHGRLHGTFIFNGKIEHTTREVRLIFVKVNGRWVINSVVIR”, the protease stability score was 1.63.
With “HERQKEMETLVELFDEEWLTGNEQTHRRLADPHMKLDVNGKTYHGWKQYNKHLQDFLKRIDHVELEIKRIRVQGEYAHSDGTLRMHYNGVTEERNVHVEINIIDGRLKSVHLKVE” the protease stability score was 1.1.
Work on “SHNDKLWHEDIELFIEAWETGDWKLLVEMLDPHTRIEIRQGDKTIVLHGREDASRDIIEYTEFFKNVTITKDDRHIQGDKTEMHITIIIGEFVLRTIIEFDMFNGQLKTYRRKVL” yielded a protease stability score of 1.18.
Sequence “SEDEEAAKHMFELLVHHIETGDEESLRKLLDPNVRMDIDGRIIHGREIFARQMFLESLHIRTEFRLKHVDTIGEKLHLFTEVTYKINGVHIKRDTRVIILKVDGRWVFHSIRFE” has a protease stability score of 0.951.
Work on “DDLKEDADKYSDLEREARQTGDEDFISNLMDPNVLVLINGREIHGREDVLKWLVDLRRKLGVDRFRSEVEDKHIDVQGDKIRIHGILRLNFNGQHFRIDVHIIFQKVDGRWHVREERYH” yielded a protease stability score of 1.41.
“DEEEESYRIAEHLFREVMETGDERISEHLADPRTRFQVGDKTFHGMDEWREVLHRMLVEIRMHDVKVHDVKSIGDKLIIDGYLYIEINGRRTSIYTELYWLKVNGQWRLHYITMH” gave a protease stability score of 1.12.
With “DDRKEMSEEASEIFLHLLATGDERTERKLLDPHVRLIIGDKHLHGREEFVRFKHEEMRDLGVTNVEVREKDVKVYDGKIELHGHFNVNGKWVEIHVIAEKFNGRWILKRVNFH” the protease stability score was 0.875.
In the case of “DEREELSKHITERFIRSVQTGDERVLKELIDPHARVIVDGRRFIGRHVWVKILKDLGIDHLEIEHVDLIGDKARIDSRVDVDGQEHNVKIHLEVINGRIHWIEERIK”, the protease stability score was 1.04.
For “SEDDEQAHRTIEIWLRASRTGNEEELERLADPHDKIEFNGREHHGREEFLKIMKHLRVHHMDVRDRTLIGDKINIDVILDLHFNGRRHIIELTTILVKINGRWFFKSWIFI”, the protease stability score was 1.21.
“SEEEEILETVAKKMVDILETGDEDKLTRLADPDVRHRIDVDGRDLSYHGREEINRFMHHWKREWRIDSITVHRVHVINGQIHIDIEVRETVGDKHVIVRRELIIVIVDGRVKRVEIIFR” gave a protease stability score of 0.253.
In the case of “SHLSEIAEEIMRELAHAQITGDEHTISRLLDPDTRVEFNGQELHGRDSWVKFLRELGVDHIEIRLEIKRMRIFENRVEIDGVDHIIIRYNGREERREIPSHWDLMKIDGRWSIHSVRAE”, the protease stability score was 1.4.
“DHHEEASHRVIEILLRAHRTGDWHELLRMMDPNTMLIVGDKTFHGREELEKILRHFVERAITIHDIKIESVENQGDKIHVHGHIDKRVNGRQVSIETEIDILKVNGRWFISTLRYH” gave a protease stability score of 1.89.
In the case of “SEEEQEAIENLHQYIEAIKTGDEDKLRDLFDPNAIIHFDGREIHGRHVFLKKLRHLWLDLKHFHIQHVEPYNGRVEIHGFQHTSVDIDGVRSRRDEHVLIEIIKINGKWKIKRIEWI”, the protease stability score was 1.68.
For “EEEHELTELLSRLWVHAIRTGDEDTLKELMDPNTRFEINGKEHIGRERLTDAFRELRVHRLHIEHIEIQGDKVLMETRSDIEINGVRRETETRIILHVVNGRIKEVRVHIK”, the protease stability score was 1.84.
